Assay results taken from paper PMC9278865.

Target: wt ACE2_(615)-Fc (M27) (human) (UniProt Q9BYF1)
Assay: SPR

Sequence of wt ACE2_(615)-Fc (M27) (human) (Q9BYF1 18-615): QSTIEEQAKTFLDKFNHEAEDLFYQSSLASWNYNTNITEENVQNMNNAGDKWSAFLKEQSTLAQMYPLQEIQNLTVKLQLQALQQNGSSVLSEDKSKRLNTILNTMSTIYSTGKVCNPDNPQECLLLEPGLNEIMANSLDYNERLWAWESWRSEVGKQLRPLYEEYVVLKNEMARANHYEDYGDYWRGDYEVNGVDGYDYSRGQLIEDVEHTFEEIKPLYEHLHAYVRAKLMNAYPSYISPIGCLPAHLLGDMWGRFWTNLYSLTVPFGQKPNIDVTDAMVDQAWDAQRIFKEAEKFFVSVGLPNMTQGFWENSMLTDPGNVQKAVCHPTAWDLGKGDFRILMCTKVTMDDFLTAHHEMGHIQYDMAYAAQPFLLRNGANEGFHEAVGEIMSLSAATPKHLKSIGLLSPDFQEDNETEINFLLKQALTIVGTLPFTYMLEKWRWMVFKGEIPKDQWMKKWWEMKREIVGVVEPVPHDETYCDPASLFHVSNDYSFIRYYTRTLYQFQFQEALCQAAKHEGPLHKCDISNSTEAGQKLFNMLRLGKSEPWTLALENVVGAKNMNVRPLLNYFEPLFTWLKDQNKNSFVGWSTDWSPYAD

## SARS-CoV RBD (residues 306 to 577) (domain or fragment)
  fold lower affinity than RBDwt on M27: 5 fold
